Experimental data reported in article PMC8606531, “The Impact of Rare Human Variants on Barrier-To-Auto-Integration Factor 1 (Banf1) Structure and Function”.

Biological target: T1, Banf1 WT (Homo sapiens, UniProt O75531 1-89)
T1 sequence: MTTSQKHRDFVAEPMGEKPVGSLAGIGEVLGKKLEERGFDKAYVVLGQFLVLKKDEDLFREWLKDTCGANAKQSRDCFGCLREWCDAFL
Assay: EMSA; EC50; 10 mM KH2PO4, 100 mM NaCl, 0.01% IGEPAL, 5 nM Cy5 DNA, 30 min at 37 C; pH not stated; 8% gel in 1x TBE at 4 C
Conditions: protein: recombinant; tags: N-terminal His6 (pET-28a NdeI-XhoI); chain copies: 2; label: 5' Cy5 on forward strand; blunt

B1: Cy5 40 bp dsDNA (dsDNA)
DNA 1: AGGAGCGCCAGACCCACCAAGAGCCCTCTATCGGTTGGGA
DNA 2: TCCCAACCGATAGAGGGCTCTTGGTGGGTCTGGCGCTCCT
apparent K (half saturation): 15.1 ± 1.96 nM
